Target: T1, mouse transferrin receptor 1 (TfR1) on TRH3 cells (293T cells stably expressing mouse TfR1) (mouse, UniProt Q62351 1-763)
T1 construct: whole, on cells; also called mTfR1; CD71
Assay: FACS on TRH3 cells, anti-TfR1 antibody staining after incubation with pseudovirus

T1 sequence (Q62351 whole entry): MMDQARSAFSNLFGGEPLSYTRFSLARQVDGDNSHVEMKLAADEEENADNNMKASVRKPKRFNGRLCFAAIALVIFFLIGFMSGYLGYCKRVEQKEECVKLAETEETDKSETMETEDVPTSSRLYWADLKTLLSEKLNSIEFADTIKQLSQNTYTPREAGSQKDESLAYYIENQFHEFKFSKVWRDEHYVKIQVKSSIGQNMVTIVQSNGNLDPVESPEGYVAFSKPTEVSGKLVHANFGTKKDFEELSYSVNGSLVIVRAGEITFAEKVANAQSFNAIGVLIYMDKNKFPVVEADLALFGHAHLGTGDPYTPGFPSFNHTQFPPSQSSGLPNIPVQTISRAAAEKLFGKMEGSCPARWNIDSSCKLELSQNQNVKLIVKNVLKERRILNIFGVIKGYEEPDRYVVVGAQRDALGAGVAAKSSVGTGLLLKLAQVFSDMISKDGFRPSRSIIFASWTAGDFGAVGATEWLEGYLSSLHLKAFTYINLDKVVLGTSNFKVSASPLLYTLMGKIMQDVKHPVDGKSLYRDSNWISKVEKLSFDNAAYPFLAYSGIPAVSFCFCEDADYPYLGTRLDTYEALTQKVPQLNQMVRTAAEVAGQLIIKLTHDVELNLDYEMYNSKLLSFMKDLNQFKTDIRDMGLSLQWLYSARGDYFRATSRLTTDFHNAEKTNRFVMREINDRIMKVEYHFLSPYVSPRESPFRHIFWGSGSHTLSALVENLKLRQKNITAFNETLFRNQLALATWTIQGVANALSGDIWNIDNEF

B1: wild-type MMTV (C3H strain) env protein on pseudotyped MoMLV virus (other)
chain: ESYWAYLPKPPILHPVGWGNTDPIRVLTNQTIYLGGSPDFHGFRNMSGNVHFEGKSDTLPICFSFSFSTPTGCFQVDKQVFLSDTPTVDNNKPGGKGDKRRMWELWLTTLGNSGANTKLVPIKKKLPPKYPHCQIAFKKDAFWEGDESAPPRWLPCAFPDQGVSFSPKGALGLLWDFSLPSPSVDQSDQIKSKKDLFGNYTPPVNKEVHRWYEAGWVEPTWFWENSPKDPNDRDFTALVPHTELFRLVAASRYLILKRPGFQEHDMIPTSACVTYPHAILLGLPQLIDIEKRGSTFHISCSSCRLTNCLDSSAYDYAAIIVKRPPYVLLPVDIGDEPWFDDSAIQTFRYATDLIRAKRFVAAIILGISALIAIITSFAVATTALVKEMQTATFVNNLHRNVTLALSEQRIIDLKLEARLNALEEVVLELGQDVANLKTRMSTRCHANYDFICVTPLPYNASESWERTKAHLLGIWNDNEISYNIQELTNLISDMSKQHIDTVDLSGLAQSFANGVKALNPLDWTQYFIFIGVGALLLVIVLMIFPIVFQCLAKSLDQVQSDLNVLLLKKKKGGNAAPAAEMVELPRVSYT
notes: On virions it is processed into SU (gp52) and TM (gp36); also called wild type pseudovirus; wt
binding result: binds
